B1: TPR t1 (parent)
chain: GACCAAUCUGCCCUCAGAGCUCGAGAACAUCUUCGGAUGCAGAGGAGGCAGGCUUCGGUGGCGCGAUAGCGCCAACGUCCUCAACCUCCAAUGCAUCCCACCACAUGAUGAUGCCUGAAGAGCCUUGGUUUUUUG

Variants of: B1
Experiment: polymerase ribozyme fitness, log enrichment relative to wild type (log ratio); higher = more active; in vitro selection for triplet polymerase activity
Summary of the method: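 Input and output libraries were sequenced on Illumina after a single in vitro selection round, run in triplicate on PCR-built, transcribed mutant libraries of each subunit of a heterodimeric triplet polymerase ribozyme. Selection annealed libraries to a biotinylated primer, the partner subunit and triplets, incubated them frozen at −7 °C, then gel-excised extended constructs for streptavidin-bead capture and RT-PCR. Genotypes with ≥10 input reads and ≥1 read per output were kept. Fitness is the logarithm, taken in base 2, of genotype enrichment divided by wild-type enrichment, using inverse-variance-weighted replicate averages.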

Row | Variant | polymerase ribozyme fitness (log ratio)
1 | C8G U9C A16G A24U C28U U92C U96A C99A A111U G120C | -6.18
2 | C8G G45A C56U C94A C101A | -1.64
3 | C8G C13A G57C U78G U112A A118U | 0.98
4 | C8G C13G C15G C34A A46C C88U C123U | -5.49
5 | C8G C82A A90U U92G G117U G120C | -1.01
6 | C8U C11A C124U | 1.17
7 | C8U A26G U54C C72U | -2.88
8 | C8U A26G U54C G60U | -2.1
9 | C8G G36A | -0.023
10 | C8G G19U C94U | -2.66
11 | C8G A37G G71A C123A U133G | 1.08
12 | C8G G42U G58C | -0.604
13 | C8G C85A C124U | 1.24
14 | C8G C56U | 0.485
15 | C8G U14G G35C C64U C94U | -3.36
16 | C8G C20A U96A U131G | -3.68
17 | C8U A41G C64G | -6.15
18 | C8G G35U | -3.78
19 | C8G A100U C115U | -2.51
20 | C8G G17C C40U G61U U106A U131A | -4.28
21 | C8G A27U G93U | -3.29
22 | C8G G60U C70U C79A U96C | -4.38
23 | C8G C12G | 0.399
24 | C8U A37G G61U U130A | -0.107

Row | Variant | polymerase ribozyme fitness (log ratio)
25 | C8G C11U C22G C72U | -3.41
26 | C8G C13A U67C | -4.98
27 | C8G A41C | -1.28
28 | C8G C15U | -1.19
29 | C8G G58A G93U C101U A121C | 0.327
30 | C8U A41U C73A | -0.9
31 | C8U A16U A66U C72G G77U C123U | -1.74
32 | C8G C40U G60C | -0.367
33 | C8G C114A G135U | -0.31
34 | C8U A46U G61A C101A G113U | -2.36
35 | C8G G39A A43C C64U | -2.65
36 | C8G C12A G39A C85U U112A G113C | -1.36
37 | C8G C13G A37C G52C C62G C86U | -4.08
38 | C8G A91C G122A | -0.3
39 | C8G G60U U81A C123A | 1.75
40 | C8U A29U C70A U87A | -2.4
41 | C8G A41G A83G G110U A121G | -3.81
42 | C8U A16U G47A C101A C124U | -1.94
43 | C8G G47C G60A | -1.03
44 | C8G C15G C72G | -1.27
45 | C8G G60C U81A C123A | 0.434
46 | C8G U33G C99A C101A | -5.4
47 | C8U A41C G58U C94G C104U U106A U112C | -3.18
48 | C8G C15U C22U | -4.73

Row | Variant | polymerase ribozyme fitness (log ratio)
49 | C8G A46G G110A | -0.456
50 | C8G C13G A16U C49A U129C | -0.993
51 | C8G C73U C79U | 0.882
52 | C8G C12U G51A U129G | -3.08
53 | C8G G47A U130C | 0.26
54 | C8G C40A C89A G120A U132A | 0.693
55 | C8G C13G C40U U54G | 0.0381
56 | C8G U14A G57A C97U A103C | -6.07
57 | C8G U14C U32C G48A G52U A95U G110A | -4.18
58 | C8U A16U G47A C56A C101A C124U | -1.44
59 | C8G G42A C53A G63A U81C C82A C86U C99G A118U | -7.86
60 | C8G C70U C115U | -2.38
61 | C8U A68G A111C | -3.15
62 | C8G A46U G52U C56A C82U C101A | -1.86
63 | C8G G36U G47A C72G U92G C115A | -6.07
64 | C8U A24G G113U C114U G122A | -1.73
65 | C8G C49A U54C G122U | 0.439
66 | C8G C31G | -6.18
67 | C8G C11U C40U G61C A90G C97U U129G | -3.08
68 | C8G G10C C73G U81A C88U | -1.77
69 | C8G A50G | 0.932
70 | C8G A41G U78G G122U | -0.0287
71 | C8U A50U G117C | -3.99
72 | C8G G113C | -1.31

Row | Variant | polymerase ribozyme fitness (log ratio)
73 | C8G G113A | 0.074
74 | C8G C20U G36C C49A A75G A100U | -2.01
75 | C8G C11U G52U U81G U92C A119G U133A | -5.64
76 | C8U A121G | 1.42
77 | C8G A43G G69C | -3.18
78 | C8U A27G G42U C56A A74C C89U A111C | -5.47
79 | C8G A50U G61U | 0.00345
80 | C8G C20U C40G A90U C102U | -6.69
81 | C8G C12A G17C A29G A46U G47A C72U | -6.22
82 | C8G A29U G60A G77C | -2.46
83 | C8G C49G C82G A118U | 0.164
84 | C8G G77C | 0.232
85 | C8G C70G A100C C123A | -2.51
86 | C8U A37U C49G U55A C104A | -1.74
87 | C8G A29U A68G C88U U125G | -3.26
88 | C8G C56U C104A U129G | -1.17
89 | C8G C13A A18U G51U C56A U116C | -5.95
90 | C8G U96C | 0.587
91 | C8G C86G C114A | 0.194
92 | C8U A43U G58A C79U G113C A118G | -3.06
93 | C8G A29C G48A C70U | -2.95
94 | C8G G42U G45A C56U | -0.791
95 | C8G G10C G19U A37U C53G | -3.79
96 | C8U A18C A41U A50G C101U | -2.01

Row | Variant | polymerase ribozyme fitness (log ratio)
97 | C8G G17U A26U C72G | -4.46
98 | C8G C28G C64U U116G A121G | -2.9
99 | C8G U33G C72G C80U A103U G110C A121C U129C | -7.86
100 | C8G C11G A24G C40U C56U C94U | -2.88
101 | C8G C56U C97U | 0.547
102 | C8G C15U C62U G135U | -1.08
103 | C8G C89U U106A | 0.442
104 | C8G C56A U125A U133G | -0.732
105 | C8G C49A G71U U92A C123U | -2.6
106 | C8G C62U C115U | -0.929
107 | C8U A18U A37C G45U C53A G113A C124U | -2.69
108 | C8G G10C C11U C20A U33C C56G G63U C64G C72G C114G G127U | -6.79
109 | C8G C56A C124G | 1.48
110 | C8G U21C G45U C49G | -0.918
111 | C8G U55G G61C | -0.439
112 | C8G G36U C49G C62G U129C | -3.6
113 | C8G G36C C56A C70U U96C A119U | -5
114 | C8G G71U C82U C86U | -1.12
115 | C8G C15G C76G | -1.01
116 | C8G U55G C88A A121U G128U | 0.0321
117 | C8G C70U A74U C98U G110A | -6.03
118 | C8G G60A | 0.62
119 | C8G G60C | 0.0647
120 | C8G G60U | 0.698

Row | Variant | polymerase ribozyme fitness (log ratio)
121 | C8G G107U | -5
122 | C8G U9G G10U | -0.244
123 | C8G G47A C97A G120U | -2.93
124 | C8G A46G C56A A84C C104A C115U A118U A119U | -4.77
125 | C8G A50U U54C G69U U106A G117A | 0.535
126 | C8G G19C C20U U21G U54C U87G | -4.85
127 | C8G A46G C97U G120U U132A | 1.67
128 | C8G U21A G57C A108G U133C | -5.29
129 | C8U A83U C85U C123G C124G | 2.01
130 | C8G A41G G58C A83G G110U A121G | -4.41
131 | C8G C15G C70G C114U | -5.64
132 | C8G C76U G135A | -0.923
133 | C8G C13U G47C A74G | -0.735
134 | C8G C34A C72G C82U G110U | -4.9
135 | C8G C13U C79A G117A U126A | -0.523
136 | C8G U87A U96G G110U G122C U129C | -3.4
137 | C8U A29G C94A U116G | -2.84
138 | C8G C73U | 0.902
139 | C8G U14G G36U C80U G120A | 1.03
140 | C8G A74U U78G | 0.422
141 | C8G C12G G17C C82A C102U C104A | -5.44
142 | C8G U87A U112G G113U C123U G127A | -3.6
143 | C8G G39A C79A C82A C85A C114U | -4.81
144 | C8G G17U G48A G57U G69U A105U | -2.21

Row | Variant | polymerase ribozyme fitness (log ratio)
145 | C8U A91U U130A | -1.26
146 | C8G A37U A90U G93C U132A | -2.23
147 | C8G C22U G23A C123G | -7.38
148 | C8G C115U | -0.75
149 | C8G C115G | 1.06
150 | C8G C34G | -6.45
151 | C8G C34U | -3.12
152 | C8G C20G G63C U109G | -3.93
153 | C8G C15A G63C | -0.139
154 | C8G G61C C89U C104U | -2.02
155 | C8U A16U G36C G52U C97A | -2.9
156 | C8U A29U C72A | -1.79
157 | C8G A46G A66C A90U | -4.16
158 | C8G G57A A84U G120U | 0.672
159 | C8G G35C A90G | -2.66
160 | C8G C79U U96A U130C U133G | -0.147
161 | C8G C114U | -0.759
162 | C8G G42U G60C U81A U129G | -6.22
163 | C8G C11G C20U G63C | -1.38
164 | C8G C28A G61A | -3.79
165 | C8G G48C A50U C53A C62G U129C | -2.9
166 | C8U A46G U54C C56A | -0.306
167 | C8G G19A | -1.89
